± gives the uncertainty stated by the source.

The text below walks through data of the supplement of paper PMC7877785.

A short description of this series: self-splicing fitness, log relative to wild type (ln ratio); higher = more splicing; Tetrahymena group I intron in knt gene, E. coli kanamycin selection, DiMSum; sequences stand for … in CUCUCU…GGAGGGAAAAGUUAUCAGGCAUGCACCUGGUAGCUAGUCUUUAAACCAAUAGAUUGCAUCGGUUUAAAAGGCAAGACCGUCAAAUUGCGGGAAAGGGGUCAACAGCCGUUCAGUACCAAGUCUCAGGGGAAACUUUGAGAUGGCCUUGCAAAGGGUAUGGUAAUAAGCUGACGGACAUGGUCCUAACCACGCAGCCAAGUCCUAAGUCAACAGAUCUUCUGUUGAUAUGGAUGCAGUUCACAGACUAAAUGUCGGUCGGGGAAGAUGUAUUCUUCUCAUAAGAUAUAGUCGGACCUCUCCUUAAUGGGAGCUAGCGGAUGAAGUGAUGCAACACUGGAGCCGCUGGGAACUAAUUUGUAUGCGAAAGUAUAUUGAUUAGUUUUGGAGUACUCGUGGUCG
In a few lines:
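Pooled colonies went to amplicon sequencing on an Illumina HiSeq 2500 after six replicate transformations. The plates were LB agar with 100 μg/mL carbenicillin, 50 μM IPTG and 0.2% rhamnose, with or without 25 μg/mL kanamycin, incubated overnight at 37°C or 30°C. The E. coli BL21(DE3) library had all eight P1ex-region intron nucleotides randomised, the intron placed in the knt kanamycin-resistance gene on pET-22b(+). DiMSum fitness is the error-weighted combination of replicate fold changes, kanamycin against none, normalised to wild type.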

Turning to GCCCAGCAAUAUUACGCCCG, the “self-splicing fitness (ln)” value runs as follows: (30 °C) -4 ± 0.28; (37 °C) -2.36 ± 0.18.
For AUUUAGCAAUAUUACGAGGU the same measures were -3.21 ± 0.39 and -1.91 ± 0.42.
For the sequence UGCAAGCAAUAUUACGUAAC, the “self-splicing fitness (ln)” value (30 °C) was -4.96 ± 0.38 and the “self-splicing fitness (ln)” value (37 °C) is -0.276 ± 0.14.
For UAGGAGCAAUAUUACGAGUU the same measures were -3.51 ± 0.27 and -2.48 ± 0.33.
For AUUUAGCAAUAUUACGAACC the same measures were -2.12 ± 0.19 and -0.169 ± 0.21.
Turning to CGCAAGCAAUAUUACGUGGC, the “self-splicing fitness (ln)” value runs as follows: (30 °C) -3.9 ± 0.2; (37 °C) -1.93 ± 0.17.
For CCAGAGCAAUAUUACGUGUC the same measures were -2.88 ± 0.21 and -2.29 ± 0.32.
On to GGGGAGCAAUAUUACGCGGC, for which the “self-splicing fitness (ln)” value (37 °C) was -1.24 ± 0.49.
With ACAAAGCAAUAUUACGUGCA, the “self-splicing fitness (ln)” value is, setting by setting: (30 °C) -0.78 ± 0.057; (37 °C) -0.154 ± 0.074.
Regarding CAGUAGCAAUAUUACGCAUU, the “self-splicing fitness (ln)” value (30 °C) is -1.49 ± 0.18 and the “self-splicing fitness (ln)” value (37 °C) was -2.5 ± 0.22.
For AUCCAGCAAUAUUACGAUCA the same measures were -1.43 ± 0.12 and -1.09 ± 0.14.
For GAAGAGCAAUAUUACGGUUU, the “self-splicing fitness (ln)” value was -1.52 ± 0.12 (30 °C) and -0.796 ± 0.16 (37 °C).
For GGUCAGCAAUAUUACGUACU the same measures were -1.84 ± 0.12 and -0.914 ± 0.13.
For AACGAGCAAUAUUACGGGUC the same measures were -3.17 ± 0.22 and -1.65 ± 0.2.
For ACGCAGCAAUAUUACGAACG the same measures were -0.387 ± 0.076 and -0.234 ± 0.091.
Regarding UCCUAGCAAUAUUACGGUUU, the “self-splicing fitness (ln)” value was -1.44 ± 0.083 (30 °C) and -1.16 ± 0.12 (37 °C).
For GUGCAGCAAUAUUACGGCGC the same measures were -2.72 ± 0.17 and -2.41 ± 0.32.
For UCACAGCAAUAUUACGCAUG the same measures were -2.04 ± 0.098 and -1.58 ± 0.098.
Consider ACCGAGCAAUAUUACGGUUG, for which the “self-splicing fitness (ln)” value is -3.88 ± 0.21 (30 °C) and -2.51 ± 0.16 (37 °C).
In the case of AGCUAGCAAUAUUACGUUCU, the “self-splicing fitness (ln)” value runs as follows: (30 °C) -1.07 ± 0.062; (37 °C) -0.621 ± 0.08.
For CGUCAGCAAUAUUACGGUGC the same measures were -2.31 ± 0.11 and -3.54 ± 0.31.
For CAAGAGCAAUAUUACGGAAU the same measures were -3.66 ± 0.26 and -2.42 ± 0.23.
For UGAGAGCAAUAUUACGAGCG the same measures were -1.84 ± 0.24 and -1.81 ± 0.31.
On to ACUAAGCAAUAUUACGAGGG, for which the “self-splicing fitness (ln)” value reads like this: (30 °C) -2.55 ± 0.17; (37 °C) -2.31 ± 0.24.
Take GCAAAGCAAUAUUACGUACU: the “self-splicing fitness (ln)” value by setting is: (30 °C) -0.928 ± 0.067; (37 °C) 0.299 ± 0.095.
Consider GGUCAGCAAUAUUACGAAUA, for which the “self-splicing fitness (ln)” value runs as follows: (30 °C) -0.866 ± 0.13; (37 °C) -0.645 ± 0.14.
For UAGCAGCAAUAUUACGCAAU the same measures were -2.82 ± 0.13 and -1.68 ± 0.11.
For AACGAGCAAUAUUACGGUAU the same measures were -4.43 ± 0.22 and -1.85 ± 0.12.
For GCCGAGCAAUAUUACGCAUU the same measures were -2.73 ± 0.14 and -0.759 ± 0.13.
With GUGCAGCAAUAUUACGUAUG, the “self-splicing fitness (ln)” value by setting is: (30 °C) -1.86 ± 0.13; (37 °C) -1.1 ± 0.13.
For CCUCAGCAAUAUUACGCUAA the same measures were -2.79 ± 0.14 and -3.05 ± 0.2.
For UUUUAGCAAUAUUACGCGAG the same measures were -1.15 ± 0.077 and -0.226 ± 0.097.
For the sequence UUCGAGCAAUAUUACGCCAC, the “self-splicing fitness (ln)” value (37 °C) is -1.4 ± 0.46.
Consider CCCUAGCAAUAUUACGUGGA, for which the “self-splicing fitness (ln)” value (30 °C) was -1.42 ± 0.094 and the “self-splicing fitness (ln)” value (37 °C) was -0.882 ± 0.093.
For UUUUAGCAAUAUUACGAAGU the same measures were -3.02 ± 0.35 and -1.65 ± 0.46.
For GUAGAGCAAUAUUACGGAAG the same measures were -2.83 ± 0.29 and -1.42 ± 0.4.
For UAGUAGCAAUAUUACGAUCG the same measures were -0.771 ± 0.095 and 0.251 ± 0.12.
On to AUCCAGCAAUAUUACGAGUA, for which the “self-splicing fitness (ln)” value reads like this: (30 °C) -2.01 ± 0.18; (37 °C) -1.07 ± 0.12.
With AUGCAGCAAUAUUACGGGUC, the “self-splicing fitness (ln)” value reads like this: (30 °C) -3.56 ± 0.31; (37 °C) -1.61 ± 0.13.
For UCUCAGCAAUAUUACGAAAG the same measures were -1.9 ± 0.26 and -1.36 ± 0.21.
As to UUUUAGCAAUAUUACGCGAU, the “self-splicing fitness (ln)” value (30 °C) is -3.02 ± 0.34 and the “self-splicing fitness (ln)” value (37 °C) was -1.97 ± 0.27.
In the case of CGGUAGCAAUAUUACGCAAU, the “self-splicing fitness (ln)” value (37 °C) was -3.67 ± 0.46.
As for CGAAAGCAAUAUUACGAUGU, the “self-splicing fitness (ln)” value by setting is: (30 °C) -1.52 ± 0.074; (37 °C) -1.15 ± 0.13.
For AAUGAGCAAUAUUACGUAAC the same measures were -3.92 ± 0.27 and -2.45 ± 0.21.
For CGCUAGCAAUAUUACGCUUC the same measures were -2.39 ± 0.28 and -2.39 ± 0.39.
For AUAGAGCAAUAUUACGGGGG the same measures were -3.2 ± 0.27 and -2.72 ± 0.4.
As to GCGGAGCAAUAUUACGUGGU, the “self-splicing fitness (ln)” value is -3.54 ± 0.26 (30 °C) and -3.01 ± 0.4 (37 °C).
For GCACAGCAAUAUUACGAAGG the same measures were -1.31 ± 0.065 and -0.444 ± 0.096.
For UGUAAGCAAUAUUACGGGCG the same measures were 0.00753 ± 0.092 and 0.237 ± 0.11.
On to UACAAGCAAUAUUACGUCGA, for which the “self-splicing fitness (ln)” value (30 °C) was -1.78 ± 0.08 and the “self-splicing fitness (ln)” value (37 °C) is -0.266 ± 0.082.
For UCAAAGCAAUAUUACGAGUC the same measures were -3.79 ± 0.21 and -2.26 ± 0.22.
As for CGGGAGCAAUAUUACGCGCU, the “self-splicing fitness (ln)” value (30 °C) is -3.25 ± 0.32.
In the case of GUGAAGCAAUAUUACGGUCC, the “self-splicing fitness (ln)” value (30 °C) is -0.351 ± 0.15 and the “self-splicing fitness (ln)” value (37 °C) is -0.0265 ± 0.18.
As to CCCCAGCAAUAUUACGGCCA, the “self-splicing fitness (ln)” value (30 °C) was -3.1 ± 0.2 and the “self-splicing fitness (ln)” value (37 °C) was -2.16 ± 0.2.
For AUCCAGCAAUAUUACGAAGA the same measures were -1.56 ± 0.18 and -1.64 ± 0.16.
With AGUCAGCAAUAUUACGGCGG, the “self-splicing fitness (ln)” value reads like this: (30 °C) -0.596 ± 0.1; (37 °C) -0.561 ± 0.12.
On to AAGCAGCAAUAUUACGACGU, for which the “self-splicing fitness (ln)” value is -0.298 ± 0.067 (30 °C) and 0.18 ± 0.077 (37 °C).
For UACGAGCAAUAUUACGUUUU the same measures were -3.66 ± 0.17 and -2.4 ± 0.16.
Regarding AUUCAGCAAUAUUACGUUUG, the “self-splicing fitness (ln)” value was -2.76 ± 0.094 (30 °C) and -1.54 ± 0.1 (37 °C).
Turning to UUCUAGCAAUAUUACGGCCC, the “self-splicing fitness (ln)” value (30 °C) is -1.62 ± 0.41.
On to AUGUAGCAAUAUUACGUGUA, for which the “self-splicing fitness (ln)” value is, setting by setting: (30 °C) -2.47 ± 0.11; (37 °C) -1.74 ± 0.089.
